Laboratory results reported in publication PMC5868266.

Assays:
human C3b (human) [1] = biological target: human C3b (human) (UniProt P01024); experiment: SPR
human C3b (human) [2] = biological target: human C3b (human) (UniProt P01024); experiment: SPR; same injections as a1, steady-state binding model; for SCIN-A on eqC3b the concentrations were subsaturating, so the fit used a constant Rmax based on the eqSCIN/eqC3b interaction
[3] = biological target: equine C3b (horse (endogenous in equine plasma)); experiment: as above
human C3b (human) [4] = biological target: human C3b (human) (UniProt P01024); experiment: SPR; Biacore T200; biotinylated C3b captured on a neutravidin-coupled CMD-200 chip (eqC3b 3,000 RU, human C3b 4,200 RU); SCIN injected 2 min at 2.5-2,500 nM, dissociation 3 min; 25 °C; 20 mM HEPES pH 7.3, 140 mM NaCl, 0.005% Tween 20; 30 μl/min; triplicate; 1:1 kinetic model (KD = kd/ka)
[5] = biological target: equine C3b (horse (endogenous in equine plasma)); experiment: as above
[6] = biological target: equine alternative pathway C3 convertase (eqC3bBb) (horse (endogenous in equine plasma))

| Substance | Kd (human C3b (human) [1]) | koff (human C3b (human) [1]) | kon (human C3b (human) [1]) | Kd (human C3b (human) [2]) | Kd [3] | Kd (human C3b (human) [4]) | koff (human C3b (human) [4]) | kon (human C3b (human) [4]) | Kd [5] | koff [5] | kon [5] | inhibition of eqC3 cleavage (α-chain to α′) by fluid-phase eqC3bBb, eqSCIN 0.04-10 μM, densitometry of reducing SDS-PAGE [6] |
| --- | --- | --- | --- | --- | --- | --- | --- | --- | --- | --- | --- | --- |
| staphylococcal complement inhibitor SCIN-A (natural protein) | 140 nM | 0.092 s⁻¹ | 630000 M⁻¹ s⁻¹ | 140 nM | 29000 nM | – | – | – | – | – | – | – |
| equine staphylococcal complement inhibitor (eqSCIN) (natural protein) | – | – | – | 300 nM | 220 nM | 230 nM | 0.13 s⁻¹ | 550000 M⁻¹ s⁻¹ | 61 nM | 0.11 s⁻¹ | 1.8e+06 M⁻¹ s⁻¹ | 0.61 µM |
